Laboratory results as given in US12319931B2, “Oncolytic virus expressing interferon and application therefor” (SHANGHAI YUANSONG BIOTECHNOLOGY CO. LTD., priority 2018, dated 2025).

Test system: HCC1806 xenograft tumor
Experiment: HCC1806 xenograft tumor model in nude mice
Format: in vivo
Conditions: virus intratumoral 1.5×10^10 VP/time/mouse, rIFN intraperitoneal 20 μg/time/mouse, 5 times
Method: When the experimental nude mice reached 5 weeks old, they were injected with 2×10^6 HCC1806 tumor cells for tumor formation. […] The tumor size was observed and measured every 3 days after administration of oncolytic virus.
Specifically, the triple negative breast cancer cell line HCC1806 xenograft tumor of nude mice with less immune cell infiltration were used for in vivo drug efficacy testing. […] The tumor size was measured every three days.

B1: recombinant interferon protein: consensus interferon rIFN protein; synthetic interferon with roughly the average sequence of human interferon-α subtypes (protein)
chain 1: MALSFSLLMAVLVLSYKSICSLGMCDLPQTHSLGNRRALILLAQMRRISPFSCLKDRHDFGFPQEEFDGNQFQKAQAISVLHEMIQQTFNLFSTKDSSAAWDESLLEKFYTELYQQLNDLEACVIQEVGVEETPLMNVDSILAVKKYFQRITLYLTEKKYSPCAWEVVRAEIMRSFSLSTNLQERLRRKE
chain 2: B1 chain 1
chain 3: B1 chain 1
modifications: consensus interferon coding sequence IFN-1; consensus interferon coding sequence IFN-2; consensus interferon coding sequence IFN-3
  tumor-suppressive effect: no obvious tumor-suppressive effect
